From patent US20180057604A1 (Genentech, published 2018)
Positions count from the first letter of the chain named. Numbers in names are those of the source. Where two headings read alike, the source gives them in different places. Each block holds one binder with its values, some of them ahead of it.

Key:
[1] = target: T1, cyno TfR extracellular domain (analogous construct to human TfR ecd) (cynomolgus monkey, UniProt Q5RDH6 87-760 (Pongo abelii entry)); experiment: SPR, KD on cyno TfR over KD on human TfR
T1 construct: also called cynoTfR ecd
T1 chain: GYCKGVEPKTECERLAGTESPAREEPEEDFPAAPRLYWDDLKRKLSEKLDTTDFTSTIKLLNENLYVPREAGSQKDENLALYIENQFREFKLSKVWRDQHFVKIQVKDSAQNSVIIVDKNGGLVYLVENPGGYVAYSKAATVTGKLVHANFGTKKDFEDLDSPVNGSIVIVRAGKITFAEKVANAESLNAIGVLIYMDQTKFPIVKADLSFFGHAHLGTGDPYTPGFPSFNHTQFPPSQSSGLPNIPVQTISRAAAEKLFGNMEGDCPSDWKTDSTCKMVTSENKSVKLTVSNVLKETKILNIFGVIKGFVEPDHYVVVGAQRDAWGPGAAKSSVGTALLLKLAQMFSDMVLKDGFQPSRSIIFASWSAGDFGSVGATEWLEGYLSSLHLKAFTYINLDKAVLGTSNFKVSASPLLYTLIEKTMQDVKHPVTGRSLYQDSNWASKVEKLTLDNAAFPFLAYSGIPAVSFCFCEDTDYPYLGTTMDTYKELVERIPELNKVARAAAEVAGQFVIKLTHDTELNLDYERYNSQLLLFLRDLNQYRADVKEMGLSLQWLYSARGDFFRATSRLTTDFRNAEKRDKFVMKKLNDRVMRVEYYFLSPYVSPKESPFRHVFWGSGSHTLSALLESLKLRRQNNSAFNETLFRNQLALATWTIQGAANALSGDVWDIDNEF

[2] = target: T2, human TfR extracellular domain with N-terminal His tag (human, UniProt P02786 89-760); experiment: SPR, TfR captured by anti-His, Fab injected;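 on KD: single cycle kinetics with a Fab dilution series, fitted by a one-to-one Langmuir model or a steady state model, KD taken as koff over kon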
T2 construct: Biotinylated in some assays; also called huTfR; HuTfR

[3] = target: T1, cyno TfR extracellular domain …; experiment: SPR, TfR captured by anti-His, Fab injected;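 on KD: single cycle kinetics with a Fab dilution series, fitted by a one-to-one Langmuir model or a steady state model, KD taken as koff over kon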
[4] = target: T2, human TfR extracellular domain with …; experiment: ELISA, IgG
[5] = target: T1, cyno TfR extracellular domain …; experiment: ELISA, IgG
[6] = target: T2, human TfR extracellular domain with …; experiment: SPR SCK 1:1 fit, IgG
[7] = target: T1, cyno TfR extracellular domain …; experiment: SPR SCK 1:1 fit, IgG
[8] = target: T2, human TfR extracellular domain with …; experiment: SPR steady state, IgG
[9] = target: T1, cyno TfR extracellular domain …; experiment: SPR steady state, IgG
[10] = target: T1, cyno TfR extracellular domain …; experiment: SPR, KD on cyno TfR over KD on human TfR
[11] = target: T2, human TfR extracellular domain with …; experiment: SPR, TfR captured by anti-His, Fab injected; remark: listed apart in the source;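 on KD: single cycle kinetics with a Fab dilution series, fitted by a one-to-one Langmuir model or a steady state model, KD taken as koff over kon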
[12] = target: T1, cyno TfR extracellular domain …; experiment: SPR, TfR captured by anti-His, Fab injected;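 on KD: single cycle kinetics with a Fab dilution series, fitted by a one-to-one Langmuir model or a steady state model, KD taken as koff over kon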
[13] = target: T2, human TfR extracellular domain with …; experiment: SPR, Fab
[14] = target: T1, cyno TfR extracellular domain …; experiment: SPR, Fab
human BACE1 ECD [15] = target: T3, human BACE1 ECD; experiment: Octet, pH 5.0;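 further: antibodies captured on anti-human capture sensor tips, dissociation monitored in PBS with BSA buffer, kinetics fitted with a one-to-one binding model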
T3 construct: analyte of the Octet assay (200 nM) and enzyme of the first short substrate assay; also called human BACE1 extracellular domain

murine BACE1 ECD [16] = target: T4, murine BACE1 ECD; experiment: Octet, pH 5.0;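 further: antibodies captured on anti-human capture sensor tips, dissociation monitored in PBS with BSA buffer, kinetics fitted with a one-to-one binding model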
T4 construct: analyte of the Octet assay (200 nM) and enzyme of the first short substrate assay

human BACE1 ECD [17] = target: T3, human BACE1 ECD; experiment: Octet, pH 7.5;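 further: antibodies captured on anti-human capture biosensor tips, dissociation followed in PBS with BSA buffer, kinetics fitted with a one-to-one binding model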
murine BACE1 ECD [18] = target: T4, murine BACE1 ECD; experiment: Octet, pH 7.5;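 further: antibodies captured on anti-human capture biosensor tips, dissociation followed in PBS with BSA buffer, kinetics fitted with a one-to-one binding model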
[19] = target: T5, human BACE1 (R&D Systems) (human, UniProt P56817); experiment: SPR (Biacore)
T5 construct: recombinant, commercial (R&D Systems)

human BACE1 ECD [20] = target: T3, human BACE1 ECD; experiment: cell-based or functional assay
murine BACE1 ECD [21] = target: T4, murine BACE1 ECD; experiment: cell-based or functional assay
[22] = target: BACE1 (HTRF long substrate and FRET short substrate assays of Example 9D); experiment: cell-based or functional assay
[23] = target: T6, BACE1 in primary mouse cortical neurons (mouse, UniProt P56818 46-501); experiment: cell-based or functional assay
human BACE1 ECD [24] = target: T3, human BACE1 ECD; experiment: Octet, pH 5.0, second run
murine BACE1 ECD [25] = target: T4, murine BACE1 ECD; experiment: Octet, pH 5.0, second run
human BACE1 ECD [26] = target: T3, human BACE1 ECD; experiment: Octet, pH 7.5, second run
murine BACE1 ECD [27] = target: T4, murine BACE1 ECD; experiment: Octet, pH 7.5, second run
[28] = target: T6, BACE1 in primary mouse cortical neurons; experiment: cell-based or functional assay; remark: listed apart in the source

T4 sequence (single chain, as listed by the source limits assumed): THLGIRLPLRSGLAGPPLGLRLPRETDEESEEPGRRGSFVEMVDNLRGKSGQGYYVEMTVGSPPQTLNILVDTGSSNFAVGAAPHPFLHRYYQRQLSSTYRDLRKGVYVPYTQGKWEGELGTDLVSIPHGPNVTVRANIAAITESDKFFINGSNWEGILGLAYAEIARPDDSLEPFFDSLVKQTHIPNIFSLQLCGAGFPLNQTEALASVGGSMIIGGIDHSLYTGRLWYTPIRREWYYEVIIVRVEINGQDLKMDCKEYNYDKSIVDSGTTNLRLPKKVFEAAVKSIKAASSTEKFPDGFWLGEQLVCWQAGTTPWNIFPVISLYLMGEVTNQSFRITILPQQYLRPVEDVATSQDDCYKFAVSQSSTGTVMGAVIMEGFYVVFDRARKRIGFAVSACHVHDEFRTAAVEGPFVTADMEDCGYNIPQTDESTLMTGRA
T2 sequence (P02786 89-760 G142S): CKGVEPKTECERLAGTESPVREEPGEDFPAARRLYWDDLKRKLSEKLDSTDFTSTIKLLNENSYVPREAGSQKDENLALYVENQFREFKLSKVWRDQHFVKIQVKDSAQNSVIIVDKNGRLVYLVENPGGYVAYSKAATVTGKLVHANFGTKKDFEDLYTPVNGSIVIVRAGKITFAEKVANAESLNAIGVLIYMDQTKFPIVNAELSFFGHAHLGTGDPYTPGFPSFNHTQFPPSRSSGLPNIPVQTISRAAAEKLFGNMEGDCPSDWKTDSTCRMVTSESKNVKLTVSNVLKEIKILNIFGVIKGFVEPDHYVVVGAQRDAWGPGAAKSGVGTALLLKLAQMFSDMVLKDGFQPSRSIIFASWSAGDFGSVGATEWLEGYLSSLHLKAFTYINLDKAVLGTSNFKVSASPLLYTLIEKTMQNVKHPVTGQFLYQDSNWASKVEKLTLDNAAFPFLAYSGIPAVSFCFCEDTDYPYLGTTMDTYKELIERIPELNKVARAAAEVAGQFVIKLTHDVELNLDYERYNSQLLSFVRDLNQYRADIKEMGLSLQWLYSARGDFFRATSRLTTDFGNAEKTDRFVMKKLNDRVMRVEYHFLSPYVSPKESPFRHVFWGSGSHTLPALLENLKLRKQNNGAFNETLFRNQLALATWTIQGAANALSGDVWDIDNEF
T3 sequence (single chain, as listed by the source limits assumed): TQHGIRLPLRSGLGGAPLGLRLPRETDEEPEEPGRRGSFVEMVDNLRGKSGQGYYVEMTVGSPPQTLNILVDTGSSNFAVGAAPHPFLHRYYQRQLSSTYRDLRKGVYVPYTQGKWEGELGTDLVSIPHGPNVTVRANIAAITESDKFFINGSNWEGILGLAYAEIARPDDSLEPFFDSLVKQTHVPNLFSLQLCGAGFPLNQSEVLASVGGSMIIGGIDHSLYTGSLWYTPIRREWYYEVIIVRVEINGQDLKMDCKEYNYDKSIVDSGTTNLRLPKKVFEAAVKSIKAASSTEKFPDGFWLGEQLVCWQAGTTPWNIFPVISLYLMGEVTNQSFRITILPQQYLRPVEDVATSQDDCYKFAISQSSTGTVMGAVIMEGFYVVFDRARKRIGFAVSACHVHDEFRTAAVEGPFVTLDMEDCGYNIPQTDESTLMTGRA
T6 sequence (P56818 46-501): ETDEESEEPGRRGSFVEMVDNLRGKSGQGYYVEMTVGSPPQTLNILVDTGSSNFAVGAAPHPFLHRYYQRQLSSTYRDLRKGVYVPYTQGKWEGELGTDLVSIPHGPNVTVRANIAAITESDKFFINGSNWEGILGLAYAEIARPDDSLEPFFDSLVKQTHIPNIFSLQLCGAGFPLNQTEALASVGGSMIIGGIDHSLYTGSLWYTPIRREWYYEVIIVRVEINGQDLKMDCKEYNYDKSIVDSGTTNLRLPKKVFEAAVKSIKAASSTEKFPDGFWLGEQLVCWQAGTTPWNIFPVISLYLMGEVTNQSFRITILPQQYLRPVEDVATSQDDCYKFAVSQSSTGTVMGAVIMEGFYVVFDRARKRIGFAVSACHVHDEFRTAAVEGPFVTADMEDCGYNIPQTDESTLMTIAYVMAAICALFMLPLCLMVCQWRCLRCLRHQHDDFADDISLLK
T5 sequence (P56817 22-457 limits assumed): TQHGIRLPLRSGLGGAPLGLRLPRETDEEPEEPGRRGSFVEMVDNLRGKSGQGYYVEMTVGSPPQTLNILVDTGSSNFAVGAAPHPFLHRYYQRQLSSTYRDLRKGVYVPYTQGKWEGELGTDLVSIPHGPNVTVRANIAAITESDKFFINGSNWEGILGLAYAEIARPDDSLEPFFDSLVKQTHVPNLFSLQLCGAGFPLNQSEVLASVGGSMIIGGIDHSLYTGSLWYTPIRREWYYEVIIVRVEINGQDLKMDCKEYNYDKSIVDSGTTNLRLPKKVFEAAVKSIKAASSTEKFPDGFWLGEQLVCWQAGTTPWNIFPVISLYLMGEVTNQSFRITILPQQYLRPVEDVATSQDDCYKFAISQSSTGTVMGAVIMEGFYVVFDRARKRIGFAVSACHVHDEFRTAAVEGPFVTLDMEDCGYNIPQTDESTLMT

Cy/hu ratio [1]: 3.9
Kd [2]: 0.19 nM
koff [2]: 0.000313 s⁻¹
kon [2]: 1.65e+06 M⁻¹ s⁻¹
Kd [3]: 0.741 nM
koff [3]: 0.000845 s⁻¹
kon [3]: 1.14e+06 M⁻¹ s⁻¹
B1: Mu7A4.Fab (Fab, V domains shown)
VH: QVQLQQSGPELVRPGVSVKISCKGSGYTFTDYAMHWVKQSHAKSLEWIGGISTYFGRTNYNQKFKGRATMTVDKSSSTAYMELARLTSEDSALYYCARGLSGNYVMDYWGQGTSVTVSS
VL: DIVLTQSPASLAVSLGQRATISCRASESVDDYGNSFMHWYQQKPGQPPKLLIYRASNLESGIPARFSGSGSRTDFTLTINPVEADDVATYYCQQSNEAPPTFGGGTKLEIR
notes: Fab; also called mouse 7A4 Fab

Cy/hu ratio [1]: 19.1
koff [2]: 0.000169 s⁻¹
kon [2]: 131000 M⁻¹ s⁻¹
koff [3]: 0.00244 s⁻¹
kon [3]: 98900 M⁻¹ s⁻¹
B2: Hu16F6.v4.Fab (Fab, V domains shown)
VH: EVQLVESGPGLVKPSETLSLTCTVSGNSITSEYAWNWIRQPPGKGLEWIGYISYSGTTSYNPSLKSRVTISRDTSKNQLSLKLSSVTAADTAVYYCARYGYGNPATRYFDVWGQGTLVTVSS
VL: DIQMTQSPSSLSASVGDRVTITCRASKSISKYLAWYQQKPGKTNKLLLYSGSTLQSGVPSRFSGSGSGTDYTLTISSLQPEDFATYYCQQHNEYPWTFGQGTKVEIK
notes: Fab

Cy/hu ratio [1]: 8.56
koff [2]: 0.00019 s⁻¹
kon [2]: 60700 M⁻¹ s⁻¹
koff [3]: 0.00137 s⁻¹
kon [3]: 51100 M⁻¹ s⁻¹
B3: Mu16F6.Fab (Fab, V domains shown)
VH: DVQLQESGPGLVKPSQSLSLTCTVTGNSITSEYAWNWIRQFPGNKLEWMGYISYSGTTSYNPSLKSRISITRDTSKNQLFLQLNSVTTEDTATYFCARYGYGNPATRYFDVWGAGTTVTVSS
VL: DVQITQSPSYLTASPGETITINCRASKSISKYLAWYQEKPGKTNKLLIYSGSTLQSGIPSRFSGSGSGTDFTLTISNLEPEDFAMYYCQQHNEYPWTFGGGTKLEIK
notes: Fab; also called mouse 16F6 Fab

EC50 [4]: 0.0145 µg/mL
EC50 [5]: 0.0508 µg/mL
Kd [6]: 40 nM
Kd [7]: 61 nM
Kd [8]: 150 nM
Kd [9]: 412 nM
B4: G93A (antibody, V domains shown)
VH: EVQLVQSGAEVKKPGASVKVSCKASGYTFTSYWMHWVRQAPGQRLEWIGEINPTNGRTNYIEKFKSRATLTVDKSASTAYMELSSLRSEDTAVYYCARGTRAYHYWGQGTMVTVSS
VL: DIQMTQSPSSLSASVGDRVTITCRASDNLYSNLAWYQQKPGKSPKLLVYDATNLADGVPSRFSGSGSGTDYTLTISSLQPEDFATYYCQHFWATPLTFGQGTKVEIK
notes: also called 15G11.v5 G93A (CDR-L3) IgG

Cy/hu ratio [10]: 4
koff [11]: 0.0115 s⁻¹
kon [11]: 890000 M⁻¹ s⁻¹
koff [12]: 0.025 s⁻¹
kon [12]: 484000 M⁻¹ s⁻¹
B5: Hu15G11.HC53A Fab (Fab, V domains shown)
VH: B4 VH with T54A
VL: B4 VL with A93G
notes: Fab; also called 15G11.53A Fab

Kd [13]: 245 nM
Kd [14]: 1300 nM
B6: G93A (Fab, V domains shown)
VH: B4 VH
VL: B4 VL
notes: also called 15G11.v5 G93A (CDR-L3) Fab

Cy/hu ratio [10]: 4.6
koff [11]: 0.00403 s⁻¹
kon [11]: 564000 M⁻¹ s⁻¹
koff [12]: 0.0099 s⁻¹
kon [12]: 304000 M⁻¹ s⁻¹
B7: Hu15G11.HC34A Fab (Fab, V domains shown)
VH: B4 VH with M34A
VL: B4 VL with A93G
notes: Fab

Kd [13]: 280 nM
B8: W92A (Fab, V domains shown)
VH: B4 VH
VL: B4 VL with W92A, A93G
notes: also called 15G11.v5 W92A (CDR-L3) Fab

Kd [13]: 170 nM
Kd [14]: 886 nM
B9: P95A (Fab, V domains shown)
VH: B4 VH
VL: B4 VL with A93G, P95A
notes: also called 15G11.v5 P95A (CDR-L3) Fab

Cy/hu ratio [10]: 4.4
koff [11]: 0.0104 s⁻¹
kon [11]: 433000 M⁻¹ s⁻¹
koff [12]: 0.0329 s⁻¹
kon [12]: 313000 M⁻¹ s⁻¹
B10: Hu15G11.HC51A Fab (Fab, V domains shown)
VH: B4 VH with I51A
VL: B4 VL with A93G
notes: Fab

Kd (human BACE1 ECD [15]): 0.3 nM
Kd (murine BACE1 ECD [16]): 0.65 nM
Kd (human BACE1 ECD [17]): 0.27 nM
Kd (murine BACE1 ECD [18]): 0.86 nM
Kd [19]: 2.95 nM
% inhibition of BACE1 activity, short FRET substrate (human BACE1 ECD [20]): 69%
% inhibition of BACE1 activity, short FRET substrate (murine BACE1 ECD [21]): 69%
EC50, FRET short substrate [22]: 8.58 nM
EC50, HTRF long substrate [22]: 1.79 nM
IC50, Abeta x-40 in mouse cortical neurons [23]: 6.48 nM
IC50, Abeta x-40 in mouse cortical neurons (5894*, second run) [23]: 5.43 nM
maximal % inhibition of Abeta x-40 [23]: 78%
Kd (human BACE1 ECD [24]): < 0.27 nM
Kd (murine BACE1 ECD [25]): < 0.38 nM
Kd (human BACE1 ECD [26]): < 0.38 nM
Kd (murine BACE1 ECD [27]): < 0.4 nM
B11: 5894 (antibody, V domains shown)
VH: QVQLVQSGAEVKKPGSSVKVSCKASGGTFSGYAISWVRQAPGQGLEWMGNIIPGFGTANYAQKFQGRVTITADESTSTAYMELSSLRSEDTAVYYCARSGGTKYGMLDVWGQGTMVTVSS
VL: EIVMTQSPATLSVSPGERATLSCRASQSVGSNLAWYQQKPGQAPRLLIYGASTRATGIPARFSGSGSGTEFTLTISSLQSEDFAVYYCQQLYTWPPRTFGGGTKVEIK
notes: anti-BACE1 IgG

Kd (human BACE1 ECD [15]): 1.1 nM
Kd (murine BACE1 ECD [16]): 1.1 nM
Kd (human BACE1 ECD [17]): 1.3 nM
Kd (murine BACE1 ECD [18]): 1.4 nM
Kd [19]: 3.53 nM
% inhibition of BACE1 activity, short FRET substrate (human BACE1 ECD [20]): 65%
% inhibition of BACE1 activity, short FRET substrate (murine BACE1 ECD [21]): 72%
EC50, FRET short substrate [22]: 1.33 nM
EC50, HTRF long substrate [22]: 3.91 nM
IC50, Abeta x-40 in mouse cortical neurons [28]: 0.33 nM
IC50, Abeta x-40 in mouse cortical neurons (5905*, second run) [28]: 0.83 nM
maximal % inhibition of Abeta x-40 [28]: 65%
Kd (human BACE1 ECD [24]): 0.27 nM
Kd (murine BACE1 ECD [25]): 0.38 nM
Kd (human BACE1 ECD [26]): 0.51 nM
Kd (murine BACE1 ECD [27]): 0.4 nM
B12: 5905 (antibody, V domains shown)
VH: QLQLQESGPGLVKPSETLSLTCTVSGGSISWSSYYWSWIRQPPGKGLEWIGSIYRSGRTYYNPSLKSRVTISVDTSKNQFSLKLSSVTAADTAVYYCARVGHGISYFDLWGRGTLVTVSS
VL: B11 VL with M4L, V13L, G30S, N32Y, G50D, T53K, E70D, Q79E, S80P, L91V
notes: anti-BACE1 IgG
